Laboratory results as given in patent publication US20250152742A1, “COMPOSITIONS AND METHODS FOR NEUROLOGICAL DISEASES” (Trames Bio, Inc., priority 2022, published 2025).
Residue numbers refer to the chain shown, from its start. In names and notes the source's numbering stands.

Test system: engineered chimeric receptor SEQ ID NO: 33 and its mutants (human α7-nAChR ligand binding domain / human GlyRα1 ion pore domain) in Lenti-X 293T cells
Experiment: YFP fluorescence quenching anion reporter plate reader assay (percent quench, EC50)
Assay type: cell-based
Details: for YFP fluorescence quenching using CNL001 (percent quench): receptor named in row; for YFP fluorescence quenching using Facinicline, 30 nM fac: ligand Facinicline 30 nM; for YFP fluorescence quenching using Facinicline, 300 nM fac: ligand Facinicline 300 nM; for YFP fluorescence quenching using Facinicline, 10 uM fac: ligand Facinicline 10 uM; for YFP fluorescence quenching using Facinicline, 30 uM fac: ligand Facinicline 30 uM; for YFP fluorescence quenching using TC-6987, 1 uM tc6987: ligand TC-6987 1 uM; for YFP fluorescence quenching using TC-6987, 10 uM tc6987: ligand TC-6987 10 uM; for YFP fluorescence quenching using TC-6987, 500 uM tc6987: ligand TC-6987 500 uM; for YFP fluorescence quenching using Varenicline, 3 nM var: ligand Varenicline 3 nM; for YFP fluorescence quenching using Varenicline, 30 nM var: ligand Varenicline 30 nM; for YFP fluorescence quenching using Varenicline, 300 nM var: ligand Varenicline 300 nM; for YFP fluorescence quenching using Varenicline, 500 nM var: ligand Varenicline 500 nM; for YFP fluorescence quenching using Varenicline, 1 uM var: ligand Varenicline 1 uM
Description: To screen these mutant LGICs for those having novel response profiles to ligands, an anion reporter assay was developed to assess the function of the LGICs in a high throughput format. In this assay, cells expressing a YFP reporter whose fluorescence is quenched in the presence of anion are transfected with DNA encoding the channel of interest. Upon exposure to ligand, channels that are activated will flux anion, resulting in a dose-dependent quench of the YFP that can be detected on a plate reader. The greater the quench signal (i.e., the more positive the value), the higher the ligand activity on the receptor is.
Lenti-X 293T cells (LX293T, Clontech) were maintained in DMEM containing 10% FBS and 1% penicillin/streptomycin (Invitrogen). […] Two days before assay, cells were split at a density of 20,000 cells/well in a 96-well tissue culture plate coated with poly-d lysine (Thermo Scientific). The next day, the cells were transiently transfected with 0.1 μg of DNA per well using standard Fugene protocol (Promega). On the day of assay, cells were washed 2 times in 1X extracellular solution (1X ECS: 140 mM NaCl, 5 mM KCl, 1 mM MgCl2, 2 mM CaCl2, 10 mM HEPES, 10 mM glucose, pH 7.2, mOsms 300). After the last wash, 100 μL of 1X ECS was added to the wells and the plate was incubated at 37° C. for 30 min. While incubating the plate, the drugs were diluted to a 2X concentration in 1X ECS-Nal (same components as 1X ECS except the 140 mM NaCl was replaced by 140 mM Nal). The plates were then read on a Flexstation3 (Molecular Devices). Each well, 8 wells at a time, of the plate is read for 2 min using a Flexstation3 (Molecular Devices) as follows: 1) a baseline YFP fluorescence is read for 17 sec, 2) 100 μL of ligand is added, and 3) the changes in YFP fluorescence are then measured every 1.3 sec for 1 minute and 43 seconds. The percent quench is calculated from the average fluorescence of the last 10 seconds of the read divided by the baseline average of the first 15 seconds prior to the ligand addition.
FIGS. 1A-1J provide heat maps of the percent quench of YFP fluorescence following stimulation by various doses of either acetylcholine or the non-native ligand as indicated in the Figures. CODA71 (SEQ ID NO: 33) was used as a control, and CODA75 (SEQ ID NO: 29, a non-responding chimeric engineered receptor) was used as the negative control. Quenching of the fluorescence signal, as indicated by blue shaded cells, indicate the level of engineered receptor activation by the non-native ligand at that concentration.

[1] = 1 nM CNL001, first column so headed
[2] = 1 nM CNL001, second column so headed
[3] = 1 nM brd (TC-5619/Bradanicline)
[4] = 3 nM brd (TC-5619/Bradanicline)
[5] = 10 nM CNL001, first column so headed
[6] = 10 nM CNL001, second column so headed
[7] = 10 nM brd (TC-5619/Bradanicline)
[8] = 30 nM brd (TC-5619/Bradanicline)
[9] = 50 nM CNL001, first column so headed
[10] = 50 nM CNL001, second column so headed
[11] = 100 nM CNL001, first column so headed
[12] = 100 nM CNL001, second column so headed
[13] = 100 nM brd (TC-5619/Bradanicline)
[14] = 300 nM brd (TC-5619/Bradanicline)
[15] = 1 uM CNL001, first column so headed
[16] = 1 uM CNL001, second column so headed
[17] = 1 uM brd (TC-5619/Bradanicline)

B1: CODA282: engineered receptor: Y115D in SEQ ID NO: 33 (protein)
chain: MRCSPGGVWLALAASLLHVSLQGEFQRKLYKELVKNYNPLERPVANDSQPLTVYFSLSLLQIMDVDEKNQVLTTNIWLQMSWTDHYLQWNVSEYPGVKTVRFPDGQIWKPDILLDNSADERFDATFHTNVLVNSSGHCQYLPPGIFKSSCPMDLKNFPMDVQTCKLKFGSWSYGGWSLDLQMQEADISGYIPNGEWDLVGIPGKRSERFYECCKEPYPDVTFTVTMRRRMGYYLIQMYIPSLLIVILSWISFWINMDAAPARVGLGITTVLTMTTQSSGSRASLPKVSYVKAIDIWMAVCLLFVFSALLEYAAVNFVSRQHKELLRFRRKRRHHKSPMLNLFQEDEAGEGRFNFSAYGMGPACLQAKDGISVKGANNSNTTNPPPAPSKSPEEMRKLFIQRAKKIDKISRIGFPMAFLIFNMFYWIIYKIVRREDVHNQ
modifications: synthetic sequence of chimeric LGIC
YFP fluorescence quenching using CNL001 (percent quench) [1]: −15.837%
YFP fluorescence quenching using CNL001 (percent quench) [2]: −6.519%
YFP fluorescence quenching using TC-5619/Bradanicline (percent quench) [3]: −0.54%
YFP fluorescence quenching using TC-5619/Bradanicline (percent quench) [4]: −7.22%
YFP fluorescence quenching using CNL001 (percent quench) [5]: −4.862%
YFP fluorescence quenching using CNL001 (percent quench) [6]: −8.244%
YFP fluorescence quenching using TC-5619/Bradanicline (percent quench) [7]: −2.82%
YFP fluorescence quenching using TC-6683 (percent quench) (30 nM TC-6683): 0.365%
YFP fluorescence quenching using TC-5619/Bradanicline (percent quench) [8]: −16.67%
YFP fluorescence quenching using CNL001 (percent quench) [9]: −3.807%
YFP fluorescence quenching using CNL001 (percent quench) [10]: −2.871%
YFP fluorescence quenching using ABT-126 (percent quench) (50 nM abt (ABT-126)): −21.22%
YFP fluorescence quenching using CNL001 (percent quench) [11]: −7.924%
YFP fluorescence quenching using CNL001 (percent quench) [12]: 2.11%
YFP fluorescence quenching (percent quench) (100 nM CNL002): −9.7%
YFP fluorescence quenching using ABT-126 (percent quench) (100 nM abt (ABT-126)): −19.7%
YFP fluorescence quenching using AZD-0328 (percent quench) (100 nM azd0328): 3.19%
YFP fluorescence quenching using TC-5619/Bradanicline (percent quench) [13]: −0.02%
YFP fluorescence quenching using TC-6683 (percent quench) (300 nM TC-6683): −6.865%
YFP fluorescence quenching using ABT-126 (percent quench) (300 nM abt (ABT-126)): −15.55%
YFP fluorescence quenching using AZD-0328 (percent quench) (300 nM azd0328): 4.79%
YFP fluorescence quenching using TC-5619/Bradanicline (percent quench) [14]: −12.37%
YFP fluorescence quenching using CNL001 (percent quench) [15]: 11.047%
YFP fluorescence quenching using CNL001 (percent quench) [16]: 8.04%
YFP fluorescence quenching (percent quench) (1 uM CNL002): −8.37%
YFP fluorescence quenching using ABT-126 (percent quench) (1 uM abt (ABT-126)): −14.31%
YFP fluorescence quenching using TC-5619/Bradanicline (percent quench) [17]: 31.23%
YFP fluorescence quenching using TC-6683 (percent quench) (3 uM TC-6683): −4.927%
YFP fluorescence quenching (percent quench) (10 uM ach (acetylcholine)): 6.81%
YFP fluorescence quenching (percent quench) (30 uM CNL002): 3.4%
YFP fluorescence quenching using TC-6683 (percent quench) (30 uM TC-6683): −11.259%
YFP fluorescence quenching using AZD-0328 (percent quench) (30 uM azd0328): 76.78%
YFP fluorescence quenching using TC-6683 (percent quench) (100 uM TC-6683): −11.894%
YFP fluorescence quenching (percent quench) (100 uM ach (acetylcholine)): 1.19%
YFP fluorescence quenching (percent quench) (1 mM ach (acetylcholine)): −14.05%
YFP fluorescence quenching (percent quench) (3 mM ach (acetylcholine)): 2.37%
YFP fluorescence quenching using Facinicline, 30 nM fac: 10.17
YFP fluorescence quenching using Facinicline, 100 nM fac (ligand Facinicline 100 nM): 24.77
YFP fluorescence quenching using Facinicline, 300 nM fac: 51.04
YFP fluorescence quenching using Facinicline, 10 uM fac: 79.76
YFP fluorescence quenching using Facinicline, 30 uM fac: 81.7
YFP fluorescence quenching using TC-6987, 1 uM tc6987: 13.01
YFP fluorescence quenching using TC-6987, 10 uM tc6987: 14.73
YFP fluorescence quenching using TC-6987, 500 uM tc6987: 14.29
YFP fluorescence quenching using Varenicline, 3 nM var (first column): 2.111
YFP fluorescence quenching using Varenicline, 3 nM var (second column): −12.265
YFP fluorescence quenching using Varenicline, 30 nM var (first column): −4.433
YFP fluorescence quenching using Varenicline, 30 nM var (second column): −6.153
YFP fluorescence quenching using Varenicline, 300 nM var (first column): −0.861
YFP fluorescence quenching using Varenicline, 300 nM var (second column): −1.308
YFP fluorescence quenching using Varenicline, 500 nM var (first column): 0.733
YFP fluorescence quenching using Varenicline, 500 nM var (second column): −4.633
YFP fluorescence quenching using Varenicline, 1 uM var (first column): −4.512
YFP fluorescence quenching using Varenicline, 1 uM var (second column): 0.02

B2: CODA283: engineered receptor: Y115E_N379K in SEQ ID NO: 33 (protein)
chain: B1 chain with D115E, N379K
modifications: synthetic sequence of chimeric LGIC
YFP fluorescence quenching using CNL001 (percent quench) [1]: −0.713%
YFP fluorescence quenching using CNL001 (percent quench) [2]: −0.621%
YFP fluorescence quenching using TC-5619/Bradanicline (percent quench) [3]: 0.59%
YFP fluorescence quenching using TC-5619/Bradanicline (percent quench) [4]: −6.41%
YFP fluorescence quenching using CNL001 (percent quench) [5]: 7.739%
YFP fluorescence quenching using CNL001 (percent quench) [6]: 15.277%
YFP fluorescence quenching using TC-5619/Bradanicline (percent quench) [7]: −1.58%
YFP fluorescence quenching using TC-5619/Bradanicline (percent quench) [8]: −14.24%
YFP fluorescence quenching using CNL001 (percent quench) [9]: 19.489%
YFP fluorescence quenching using CNL001 (percent quench) [10]: 33.703%
YFP fluorescence quenching using ABT-126 (percent quench) (50 nM abt (ABT-126)): −22.65%
YFP fluorescence quenching using CNL001 (percent quench) [11]: 56.886%
YFP fluorescence quenching using CNL001 (percent quench) [12]: 60.171%
YFP fluorescence quenching (percent quench) (100 nM CNL002): −5.81%
YFP fluorescence quenching using ABT-126 (percent quench) (100 nM abt (ABT-126)): −20.55%
YFP fluorescence quenching using AZD-0328 (percent quench) (100 nM azd0328): −2.1%
YFP fluorescence quenching using TC-5619/Bradanicline (percent quench) [13]: 33.36%
YFP fluorescence quenching using ABT-126 (percent quench) (300 nM abt (ABT-126)): −12.93%
YFP fluorescence quenching using AZD-0328 (percent quench) (300 nM azd0328): 38.2%
YFP fluorescence quenching using TC-5619/Bradanicline (percent quench) [14]: 43.81%
YFP fluorescence quenching using CNL001 (percent quench) [15]: 69.836%
YFP fluorescence quenching using CNL001 (percent quench) [16]: 73.855%
YFP fluorescence quenching (percent quench) (1 uM CNL002): 9.69%
YFP fluorescence quenching using ABT-126 (percent quench) (1 uM abt (ABT-126)): 1.71%
YFP fluorescence quenching using TC-5619/Bradanicline (percent quench) [17]: 75.39%
YFP fluorescence quenching (percent quench) (10 uM ach (acetylcholine)): −6.16%
YFP fluorescence quenching (percent quench) (30 uM CNL002): −12.85%
YFP fluorescence quenching using AZD-0328 (percent quench) (30 uM azd0328): 79.44%
YFP fluorescence quenching (percent quench) (100 uM ach (acetylcholine)): −11.12%
YFP fluorescence quenching (percent quench) (1 mM ach (acetylcholine)): −2.74%
YFP fluorescence quenching (percent quench) (3 mM ach (acetylcholine)): 53.61%
YFP fluorescence quenching using Facinicline, 30 nM fac: 6.39
YFP fluorescence quenching using Facinicline, 300 nM fac: 78.36
YFP fluorescence quenching using Facinicline, 10 uM fac: 81.93
YFP fluorescence quenching using Facinicline, 30 uM fac: 78.63
YFP fluorescence quenching using TC-6987, 1 uM tc6987: −9.54
YFP fluorescence quenching using TC-6987, 10 uM tc6987: −7.06
YFP fluorescence quenching using TC-6987, 500 uM tc6987: −15.15
